Key:
[1] = tested on: NCI-H460 tumors; assay: NCI-H460 lung cancer xenograft in nude mice; format: in vivo, mouse; details: L2-mIgG2a 20 mg/kg 3 times per week; DMXAA 25 mg/kg then 5 mg/kg/day for two days; tumors 100 mm^3
[2] = target: human TEM8 (CHO-TEM8) (Homo sapiens, UniProt Q9H6X2); assay: Flow cytometry staining of CHO-TEM8 cells; format: binding
Description: (§1) Trypsinized cells were rinsed in cold PBS/0.5% BSA (PBS/BSA) and labeled with anti-TEM8 Fabs (human) or full IgG (human-mouse) primary antibodies in PBS/BSA containing 10% goat serum at 4° C. Cells were rinsed with PBS/BSA and incubated with FITC-conjugated goat anti-human Fab or anti-mouse IgG secondary antibodies (Jackson Immunoresearch, West Grove, Pa.), rinsed again, and analyzed on a FACScalibur flow cytometer (Becton Dickinson, Franklin Lakes, N.J.) using CellQuest™ Software.

[3] = target: CMG2 (CHO-CMG2) (Homo sapiens, UniProt P58335); assay: Flow cytometry staining of CHO-CMG2 cells; format: binding; details: CMG2 transfectants of CHO/PR230
Description: as §1

[4] = tested on: CHO-TEM8 cells treated with lethal toxin; format: cell-based, Chinese Hamster
[5] = tested on: UACC human melanoma xenografts; assay: UACC melanoma xenograft in nude mice; format: in vivo, mouse; details: dose-escalation study, 15 mg/kg 3× per week
[6] = tested on: HCT-116 tumors; assay: HCT-116 colon xenograft in nude mice; details: treatment 3 times per week from 50 mm^3

Chain of CMG2 (CHO-CMG2) (P58335 34-489, species assumed): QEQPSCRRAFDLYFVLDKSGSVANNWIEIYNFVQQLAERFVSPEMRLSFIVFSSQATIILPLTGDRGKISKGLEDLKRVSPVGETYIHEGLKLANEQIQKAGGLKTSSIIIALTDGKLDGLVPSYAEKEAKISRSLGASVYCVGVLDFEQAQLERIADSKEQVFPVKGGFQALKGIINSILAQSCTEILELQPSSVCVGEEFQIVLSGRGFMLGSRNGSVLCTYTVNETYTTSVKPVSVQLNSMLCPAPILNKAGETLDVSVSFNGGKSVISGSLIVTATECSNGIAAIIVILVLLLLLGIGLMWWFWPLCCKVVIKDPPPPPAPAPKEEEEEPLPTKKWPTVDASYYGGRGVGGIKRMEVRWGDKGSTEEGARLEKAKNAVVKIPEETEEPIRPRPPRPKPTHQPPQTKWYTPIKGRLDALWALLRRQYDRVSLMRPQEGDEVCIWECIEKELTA
Chain of human TEM8 (CHO-TEM8) (Q9H6X2 33-564): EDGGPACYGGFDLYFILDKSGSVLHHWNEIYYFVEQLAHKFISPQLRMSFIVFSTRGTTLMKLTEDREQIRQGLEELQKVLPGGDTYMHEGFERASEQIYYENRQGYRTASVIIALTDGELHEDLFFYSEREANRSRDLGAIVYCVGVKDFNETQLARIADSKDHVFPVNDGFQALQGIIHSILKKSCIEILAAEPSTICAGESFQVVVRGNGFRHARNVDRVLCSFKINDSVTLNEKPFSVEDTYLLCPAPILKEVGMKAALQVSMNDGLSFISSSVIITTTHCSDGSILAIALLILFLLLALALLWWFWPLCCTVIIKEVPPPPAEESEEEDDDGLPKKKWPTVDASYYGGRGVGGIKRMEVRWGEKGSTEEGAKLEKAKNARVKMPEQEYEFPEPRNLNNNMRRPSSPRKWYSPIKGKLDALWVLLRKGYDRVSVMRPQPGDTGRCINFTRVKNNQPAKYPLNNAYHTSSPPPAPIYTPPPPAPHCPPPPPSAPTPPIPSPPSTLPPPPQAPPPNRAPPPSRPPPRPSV

Molecule	NCI-H460 tumor growth [1]	staining of CHO-TEM8 cells [2]	reactivity with CMG2 [3]	EC50 of protection from lethal toxin toxicity [4] [mg/L]	UACC tumor growth inhibition at 15 mg/kg [5]	HCT-116 tumor growth [6]
Cc1ccc2c(=O)c3cccc(CC(=O)O)c3oc2c1C [DMXAA, 5,6-dimethylxanthenone-4-acetic acid, reference compound]	significantly delayed tumor growth	–	–	–	–	–
L5-mIgG2a: mouse/human chimeric anti-TEM8 IgG: human L5 variable domains fused with mouse IgG2a constant domains (antibody, V domains shown) VH: QVQLVESGGGLVQPGGSLRLSCAASGFTFNSYGLSWVRQAPGKGLEWVSNISSNGSYTYYADSVKGRFTISRDNSKNTLYLQMNSLRAEDTAVYYCARAGYGLFDVWGQGTLVTVSSVL VL: DIELTQPPSVSVAPGQTARISCSGDKLREYYVHWYQQKPGQAPVLVIYGDNKRPSGIPERFSGSNSGNTATLTISGTQAEDEADYYCSSWAGSRSGTVFGGGTKLTVL	–	stained	failed to react with CMG2	2.575	partial growth inhibition	inhibited HCT-116 tumor growth
